Here are results for four molecules from US20250152729A1 (CANCER RESEARCH TECHNOLOGY, published 2025).

In assay [1] the target is T1, human SEMA4A expressed on cells (UniProt ID Q9H3S1, isoform 1) (human, UniProt Q9H3S1 33-761).
T1 sequence: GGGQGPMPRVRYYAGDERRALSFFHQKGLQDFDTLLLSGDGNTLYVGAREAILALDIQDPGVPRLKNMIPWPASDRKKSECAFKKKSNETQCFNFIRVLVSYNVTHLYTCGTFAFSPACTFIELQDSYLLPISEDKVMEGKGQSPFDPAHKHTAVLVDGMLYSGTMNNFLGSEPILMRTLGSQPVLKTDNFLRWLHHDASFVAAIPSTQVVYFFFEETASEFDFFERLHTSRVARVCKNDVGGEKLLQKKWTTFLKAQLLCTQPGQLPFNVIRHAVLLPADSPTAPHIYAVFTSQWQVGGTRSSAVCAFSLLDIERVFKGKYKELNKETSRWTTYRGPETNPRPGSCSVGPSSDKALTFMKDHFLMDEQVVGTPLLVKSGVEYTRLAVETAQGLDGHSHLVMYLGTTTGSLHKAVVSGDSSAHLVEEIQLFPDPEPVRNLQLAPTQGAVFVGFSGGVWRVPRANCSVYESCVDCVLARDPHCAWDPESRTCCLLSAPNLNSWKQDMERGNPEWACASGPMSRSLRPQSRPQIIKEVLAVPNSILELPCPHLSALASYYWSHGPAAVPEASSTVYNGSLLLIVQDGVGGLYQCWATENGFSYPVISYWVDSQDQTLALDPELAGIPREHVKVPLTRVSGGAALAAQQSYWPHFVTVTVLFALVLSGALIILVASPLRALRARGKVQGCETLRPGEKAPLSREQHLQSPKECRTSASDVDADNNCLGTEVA
The experiment in a line: cell-based or functional assay.

The target of assay [2] is T1, human SEMA4A expressed on cells …. As to the kind of experiment: cell-based or functional assay. The source holds these as a separate data set.
The target is the same in assay [3]. As to the kind of experiment: cell-based or functional assay. This is another data set of the same source.
For assay [4] the target is unchanged. As to the kind of experiment: flow cytometry on NCI-H929 cells endogenously expressing human SEMA4A, 10-point titration. As for the experimental part: Binding of SEMA4A specific IgGs to membrane-bound SEMA4A was evaluated using flow cytometry in NCI-H929 cells that endogenously express human SEMA4A. Binding assays were performed by incubating the anti-SEMA4A antibodies with 200,000 cells for 3 hours at 4° C. followed by two washes with PBS, 1% (w/v) BSA (FACS buffer). A range of antibody concentrations were evaluated using a 10-point, 3-fold dilution series. Cells were then incubated with Alexa Fluor 647 conjugated AffiniPure Fab Fragment Goat Anti-Human IgG (H+L) (Jackson Immunoresearch Europe Limited, Ely, Cambridgeshire) diluted 1:100, at 4° C. for 1 hour, followed by two washes in FACS buffer. Cells were then stained with LIVE/DEAD™ Fixable Violet Dead Cell Stain (Life Technologies, L34955) for 30 minutes at 4° C., followed by two washes in FACS buffer. Cells were then fixed using BD Cell Fix (BD Biosciences, 340181). Fluorescence of live, single cells was measured using a Novocyte™ 3000 flow cytometer and Novoexpress software (Acea Biosciences, Inc, San Diego, CA). Data were analysed using FlowJo software (FlowJo, LLC, Ashland, OR). Mean fluorescence intensity values were plotted against antibody conjugate concentrations and KD values determined using Prism software (GraphPad Software Inc, La Jolla, CA).
On the technique in general: A flow cytometer gives signals particle by particle.

Assay [5] concerns the target T2, human SEMA4B expressed on expi293 cells (human, UniProt Q9NPR2 44-837).
T2 construct: whole, on cells
T2 sequence (looked up): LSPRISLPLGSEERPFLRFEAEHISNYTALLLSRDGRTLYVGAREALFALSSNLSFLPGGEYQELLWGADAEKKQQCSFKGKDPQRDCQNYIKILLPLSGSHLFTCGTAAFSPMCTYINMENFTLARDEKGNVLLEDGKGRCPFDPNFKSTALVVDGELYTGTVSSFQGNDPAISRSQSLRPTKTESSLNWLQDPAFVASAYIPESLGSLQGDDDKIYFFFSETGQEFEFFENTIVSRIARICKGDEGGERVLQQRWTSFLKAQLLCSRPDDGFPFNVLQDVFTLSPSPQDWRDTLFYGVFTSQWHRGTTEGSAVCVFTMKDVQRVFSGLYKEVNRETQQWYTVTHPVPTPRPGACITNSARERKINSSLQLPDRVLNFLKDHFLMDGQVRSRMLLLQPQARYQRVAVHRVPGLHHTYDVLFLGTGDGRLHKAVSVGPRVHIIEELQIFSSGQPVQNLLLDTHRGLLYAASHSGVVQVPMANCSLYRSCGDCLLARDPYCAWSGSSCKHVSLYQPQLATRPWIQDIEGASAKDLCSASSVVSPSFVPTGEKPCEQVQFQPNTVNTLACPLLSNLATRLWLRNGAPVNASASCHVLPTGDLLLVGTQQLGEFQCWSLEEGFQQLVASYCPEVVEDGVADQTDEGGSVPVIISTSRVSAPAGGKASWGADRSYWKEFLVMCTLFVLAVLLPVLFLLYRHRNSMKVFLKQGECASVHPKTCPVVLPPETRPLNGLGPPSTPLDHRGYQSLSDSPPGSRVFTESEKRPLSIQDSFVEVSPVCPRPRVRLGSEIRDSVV
The experiment in a line: Mirrorball direct binding, dilution series on expi293 cells transiently transfected with human SEMA4B, anti-human Alexa Fluor 647. The method, then:
To determine the specificity profile of each purified human Alya IgG1 conjugated to McMMAF, a dilution series was tested for binding to human SEMA4A, human SEMA4B and mock transfected cells (transient transfections set up in expi 293 cells.) The three assays employed methods described in section 2.3, using the appropriate cells and substituting the un-purified scFv periplasmic preparation with the human Alya IgG1 conjugated to McMMAF. Data was analysed as Count x median mean intensity (x FLU).

The target of assay [6] is T1, human SEMA4A expressed on cells …. As to the kind of experiment: Mirrorball direct binding, dilution series on expi293 cells transiently transfected with human SEMA4A, anti-human Alexa Fluor 647. From the text:
(§1) Hits from the primary screening were re-formatted into the human Alya IgG1 vector and re-expressed and purified as described in section 4.1. In addition, a single clone was identified that contained an Asparagine deamidation motif (Asn Gly) within its VHCDR2. This potential sequence liability was de-risked by synthesising de novo two clonal variant VH genes (Asn Ala and Gln Gly) and cloning these sequences into the human Alya IgG1 expression vector. To determine the specificity profile of each purified human Alya IgG1, a dilution series was tested for binding to human SEMA4A, mouse SEMA4A, cyno SEMA4A, human SEMA4B and mock transfected cells (transient transfections set up in expi 293 cells.) The five assays employed methods described in section 2.3, using the appropriate cells and substituting the un-purified scFv periplasmic preparation with the recombinant human Alya IgG1 dilution series. Data was analysed as Count x median mean intensity (x FLU).

The target in assay [7] is T3, mouse SEMA4A expressed on expi293 cells (UniProt ID Q62178) (mouse, UniProt Q62178 33-760).
T3 construct: Transient transfection in expi293 cells
T3 sequence: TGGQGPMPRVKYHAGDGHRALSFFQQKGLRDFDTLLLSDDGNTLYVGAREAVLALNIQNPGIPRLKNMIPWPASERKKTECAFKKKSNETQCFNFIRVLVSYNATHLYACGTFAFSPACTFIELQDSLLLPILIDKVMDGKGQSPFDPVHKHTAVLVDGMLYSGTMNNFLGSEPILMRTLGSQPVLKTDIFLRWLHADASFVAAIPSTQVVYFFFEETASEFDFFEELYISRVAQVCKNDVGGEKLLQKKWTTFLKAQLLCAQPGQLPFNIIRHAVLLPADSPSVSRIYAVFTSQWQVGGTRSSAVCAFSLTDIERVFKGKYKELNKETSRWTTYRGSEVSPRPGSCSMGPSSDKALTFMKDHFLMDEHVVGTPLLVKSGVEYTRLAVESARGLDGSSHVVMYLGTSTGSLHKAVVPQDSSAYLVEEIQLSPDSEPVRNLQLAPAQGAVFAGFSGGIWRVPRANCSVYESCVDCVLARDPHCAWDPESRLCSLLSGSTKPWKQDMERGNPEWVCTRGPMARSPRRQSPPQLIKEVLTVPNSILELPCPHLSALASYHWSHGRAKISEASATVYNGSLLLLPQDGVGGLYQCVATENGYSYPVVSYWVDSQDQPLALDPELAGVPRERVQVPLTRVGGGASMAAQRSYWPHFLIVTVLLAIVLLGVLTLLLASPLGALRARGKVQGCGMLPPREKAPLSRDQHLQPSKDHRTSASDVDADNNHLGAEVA
The experiment in a line: Mirrorball direct binding, dilution series on expi293 cells transiently transfected with mouse SEMA4A, anti-human Alexa Fluor 647.
Text: as §1

The target in assay [8] is T4, cynomolgus SEMA4A expressed on expi293 cells (UniProt ID G7NV79) (cynomolgus, UniProt Q9H3S1 33-761 (human entry)).
T4 construct: Transient transfection in expi293 cells; also called cyno SEMA4A
T4 chain: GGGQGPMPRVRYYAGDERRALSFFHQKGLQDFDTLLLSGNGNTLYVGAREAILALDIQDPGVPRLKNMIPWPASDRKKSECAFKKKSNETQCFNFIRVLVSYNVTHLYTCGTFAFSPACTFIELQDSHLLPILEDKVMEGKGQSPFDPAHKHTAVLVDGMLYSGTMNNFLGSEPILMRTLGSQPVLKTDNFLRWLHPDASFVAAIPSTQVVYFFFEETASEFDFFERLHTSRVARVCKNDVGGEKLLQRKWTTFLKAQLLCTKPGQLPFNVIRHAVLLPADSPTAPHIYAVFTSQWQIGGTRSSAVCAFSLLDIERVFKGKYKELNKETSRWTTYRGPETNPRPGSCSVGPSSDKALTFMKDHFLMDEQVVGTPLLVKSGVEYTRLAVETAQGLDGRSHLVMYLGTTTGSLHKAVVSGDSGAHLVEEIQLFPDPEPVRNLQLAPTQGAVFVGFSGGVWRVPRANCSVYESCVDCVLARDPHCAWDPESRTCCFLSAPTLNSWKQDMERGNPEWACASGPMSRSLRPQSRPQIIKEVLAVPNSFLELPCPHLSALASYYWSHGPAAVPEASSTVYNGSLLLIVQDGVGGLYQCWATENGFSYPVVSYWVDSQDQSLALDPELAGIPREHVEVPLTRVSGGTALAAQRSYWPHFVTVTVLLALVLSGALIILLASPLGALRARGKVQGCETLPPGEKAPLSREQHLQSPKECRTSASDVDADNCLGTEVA
The experiment in a line: Mirrorball direct binding, dilution series on expi293 cells transiently transfected with cynomolgus SEMA4A, anti-human Alexa Fluor 647.
Text: as §1

In assay [9] the target is T2, human SEMA4B expressed on expi293 cells. As to the kind of experiment: Mirrorball direct binding, dilution series on expi293 cells transiently transfected with human SEMA4B, anti-human Alexa Fluor 647.
Text: as §1
This is another data set of the same source.

Numbering of substitutions follows the chain as printed. In names and notes the source's numbering stands. Like-named read-outs stand apart in the source and are kept apart here.

B1: mouse 5E3 as human Alya IgG1 conjugated to McMMAF (antibody, V domains shown)
VH: QVQLQQPGAELVMPGASVKMSCKASGYTFTDYWMHWVKQRPGQGLEWIGAIDTSDSYTSYNQKFKGKATLTVDESSSTAYMQLSSLTSEDSAVYYCARDYGNFYYYAMDYWGQGTSVTVSS
VL: QAVVTQESALTTSPGETVTLTCRSSTGAVTTSNYANWVQEKPDHLFTGLIGGTNNRAPGVPARFSGSLIGDKAALTITGAQTEDEAIYFCALWYSNHWVFGGGTKLTVL
modifications: McMMAF on the engineered cysteines 239iCys and S442C (EU numbering) of the heavy constant region
notes: Antibody-drug conjugate; human IgG1 Alya constant, drug-to-antibody ratio of four; also called Mouse 5E3-McMMAF
As usually defined, the Kd is the equilibrium constant for the complex coming apart. High values mean weaker binding, low ones tighter binding. On to B1, for which, in assay [1], the “Average KARPAS 25 IC50 [pM], cell kill” value was 126 pM; the “Average MM1.S IC50 [pM], cell kill” value is 5.95 pM; the “Average NCI-H929 IC50 [pM], cell kill” value turned out to be 7.53 pM. Besides, in assay [2], the “Average MM1.S IC50 [pM], cell kill” value worked out at 5.8 pM and the “Average NCI-H929 IC50 [pM], cell kill” value was 5.1 pM. In assay [3], the “EC50 (nM), Fab-pHast internalisation into NCI-H929” value stood at 0.25 nM and the “Fold-Change at 6 hours (10 nM), Fab-pHast internalisation” value was 160 fold. In assay [4], the dissociation constant (Kd) was determined as 3.18 nM. Further, the binding result in assay [5] is given as “no binding (tested: log (M) -8 (1e-8 M))”.

B2: C0120923 (antibody, V domains shown)
VH: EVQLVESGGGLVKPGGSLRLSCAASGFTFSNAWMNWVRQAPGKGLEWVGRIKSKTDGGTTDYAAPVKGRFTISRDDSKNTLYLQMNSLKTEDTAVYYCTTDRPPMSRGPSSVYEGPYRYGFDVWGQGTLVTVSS
VL: NFMLTQPHSVSESPGKTVTISCTGSGGNIVDNFVQWHQQRPGSSPTTVIYEDDQRPSGVPDRFSASVDSSSNSGSLTISGLKTEDEADYYCQSYDGANRWVFGGGTKLTVL
modifications: 239iCys and S442C (EU numbering) in the constant region
notes: one of the 6 germlined clones of m49; purified, unconjugated; also called C0120923 germlined human Alya IgG1
With B2, the binding result in assay [6] is reported as “binds”; in assay [7] it was “binds”; in assay [8] it was “binds”; in assay [9], “no binding (tested: log (M) -8 (1e-8 M))”.

B3: C0120920 (antibody, V domains shown)
VH: EVQLVQSGPEVKKPGASVKISCKASGYKLNDPGVHGVSWVRQAPGQGLEWMGWISTLNADTRYAQKFQGRVTMATDSSTSTIYMDLRSLKSDDTALYYCARDDYTAIFDFWGRGTLVTVSS
VL: QSVLTQPPSVSVAPGQTASITCGGSNIGSQSVHWYQQKPGQAPVLVVYDDSDRPSGIPERFSGSKSGNTASLILSRVEAGDEADYYCQVWDSSTDHHVFGTGTKVTVL
modifications: 239iCys and S442C (EU numbering) in the constant region
notes: purified, unconjugated; also called C0120920 human Alya IgG1 (unconjugated)
As to B3, the binding result is on record as “binds” in [6], “binds” in assay [7] and “no binding (tested: log (M) -8 (1e-8 M))” in assay [9].

B4: C0120921 (antibody, V domains shown)
VH: B3 VH with N58Q, A59G
VL: B3 VL
modifications: 239iCys and S442C (EU numbering) in the constant region
notes: purified, unconjugated; also called C0120921 human Alya IgG1 (unconjugated)
For B4, the binding result in assay [6] was “binds”; in [7], “binds”; in assay [9] it was “no binding (tested: log (M) -8 (1e-8 M))”.
